Assay results reported in patent US20200010563A1 (PROTHENA BIOSCIENCES, published 2020).
Substitutions are numbered along the chain they refer to. One block for each binder: values may come before it.

How the values were obtained:
[1] = biological target: T1, human MCAM domain 3 (amino acids 244-321) hFc construct (human, UniProt P43121 244-321); experiment: ForteBio BLI, MCAMhFc domains on anti-human IgG Fc sensors, antibody 5 ug/ml
T1 construct: One of the 'various MCAMhFc domains' immobilised on anti-human IgG Fc biosensors; also called MCAMhFc domain 3; not shown: human IgG Fc (hFc)
T1 sequence: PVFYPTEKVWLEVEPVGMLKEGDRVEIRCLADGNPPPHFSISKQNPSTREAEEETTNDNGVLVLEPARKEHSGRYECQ
Description: The following protocol was used: ForteBio anti-human IgG Fc biosensors were used to immobilize various MCAMhFc domains including full length MCAMhFc protein on to biosensor surface. […] After loading these samples into a black 96 well plate, the Octet Red was programmed as follows: 60 seconds for baseline #1; 180 seconds for loading various domains; 60 seconds for baseline #2; 180 seconds for association of antibody to domain; and 240 seconds for dissociation of antibody from domain.
1. MCAMhFc final concentration @ 5 ug/ml [0342] […] 3. ForteBio anti-human IgG Fc Capture (AHC) biosensors for kinetics experiments, cat#18-5060 [0344] 4. Block 96 well plate from Greiner Bio-one, cat#655209 [0345] 5. ForteBio Octet Red machine [0346] 6. Fresh tissue culture medium, DMEM with 20% FCS, was used as buffer for dilution The results from these analyses are as follows.

[2] = biological target: T2, human MCAM V340A mutant (V5/HIS6) on BHK cells (human, UniProt P43121 24-646); experiment: shotgun mutagenesis, immunofluorescence on BHK cells
T2 sequence: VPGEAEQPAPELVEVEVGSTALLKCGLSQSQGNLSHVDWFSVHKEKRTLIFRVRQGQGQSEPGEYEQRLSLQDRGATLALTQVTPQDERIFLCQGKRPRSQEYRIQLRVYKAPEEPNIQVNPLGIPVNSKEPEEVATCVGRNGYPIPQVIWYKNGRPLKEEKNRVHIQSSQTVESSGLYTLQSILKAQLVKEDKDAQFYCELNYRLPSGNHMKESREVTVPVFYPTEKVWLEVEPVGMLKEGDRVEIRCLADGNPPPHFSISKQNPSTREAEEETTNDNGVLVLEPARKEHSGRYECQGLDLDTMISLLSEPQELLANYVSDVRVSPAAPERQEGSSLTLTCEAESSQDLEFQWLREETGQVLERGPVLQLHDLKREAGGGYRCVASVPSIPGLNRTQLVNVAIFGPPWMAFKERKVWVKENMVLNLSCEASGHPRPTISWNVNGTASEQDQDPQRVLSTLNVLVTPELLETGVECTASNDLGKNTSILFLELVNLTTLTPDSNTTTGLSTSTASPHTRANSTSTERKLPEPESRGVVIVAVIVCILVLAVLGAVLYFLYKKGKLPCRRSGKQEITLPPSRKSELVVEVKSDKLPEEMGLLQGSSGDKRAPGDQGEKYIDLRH
Method: (§1) The mutation library was assayed for surface expression (mouse sera binding) and monoclonal antibody binding, in triplicate. Each raw data point was background-subtracted and normalized to the wild type MCAM reactivity values. The mean monoclonal antibody binding value for each clone is plotted as a function of its mean surface expression value (FIG. 1, gray diamonds). Thresholds of <30% monoclonal antibody reactivity and >50% mouse sera binding were applied to identify clones (FIG. 1, black diamonds) that were negative for monoclonal antibody binding but positive for surface expression.
(§2) Residues involved in antibody binding were identified as those that were negative for monoclonal antibody binding (<30% WT) but positive for surface expression (>50% WT) (Table 4). The mean reactivity (and standard deviation) were determined for each critical residue.

[3] = biological target: T3, human MCAM C272A mutant (V5/HIS6) on BHK cells (human, UniProt P43121 24-646); experiment: shotgun mutagenesis library, immunofluorescence on BHK cells, triplicate; standard deviation in brackets
T3 sequence: T2 sequence with C249A, A317V
Method: as §1, §2

[4] = biological target: T4, human MCAM Y318A mutant (V5/HIS6) on BHK cells (human, UniProt P43121 24-646); experiment: as above
T4 sequence: T2 sequence with Y295A, A317V
Method: as §1, §2

[5] = biological target: T5, human MCAM C320A mutant (V5/HIS6) on BHK cells (human, UniProt P43121 24-646); experiment: as above
T5 sequence: T2 sequence with C297A, A317V
Method: as §1, §2

[6] = biological target: T2, human MCAM V340A mutant (V5/HIS6) on …; experiment: as above
Method: as §1, §2

[7] = biological target: T6, human MCAM W377A mutant (V5/HIS6) on BHK cells (human, UniProt P43121 24-646); experiment: as above
T6 sequence: T2 sequence with A317V, W354A
Method: as §1, §2

binding result [1]: binds
B1: mouse anti-human MCAM monoclonal antibody clone 1414.1.2 (antibody, V domains shown)
VH: EIQLQQTGPELVKPGASVKISCKASGYSFTDYIMLWVKQSHGKSLEWIGNINPYSGSSGYNLKFKGKATLTVDKSSSTAYMQLNSLTSEDSAVYYCARGKDFAMDYWGQGTSVTVSS
VL: DIVMSQSPSSLAVSAGEKVTMSCKSSQSLLNSSTRKNFLAWYQQKPGQSPKLLIYWASTRESGVPDRFTGSGSGTDFTLTISSVQAEDLAVYYCKQSYNRYTFGGGTKLEIK
notes: Mouse hybridoma monoclonal

B2: mouse anti-human MCAM monoclonal antibody clone 1749.1.3 (antibody, V domains shown)
VH: DVKLVESGGDLVKPGGSLKLSCAASGFTFSSYIMSWVRQTPEKRLEWVATISSGGSSTYYPDSVKGRFTISRDNAKNTLYLQMSSLKSEDTAMYYCTRDDDYDVKVFAYWGQGTLVTVSA
VL: B1 VL with S22N, Q27R, S33R, T34I, F38Y, R100L, Y101L, G105A, I111L
notes: Mouse hybridoma monoclonal; also called m1749
binding result [2]: no binding (tested: <30% WT; 0.5 µg/mL antibody)
mean reactivity (% of wild type MCAM) [3]: 7.6 % of WT
mean reactivity (% of wild type MCAM) [4]: 7.1 % of WT
mean reactivity (% of wild type MCAM) [5]: 9.3 % of WT
mean reactivity (% of wild type MCAM) [6]: 8.7 % of WT
mean reactivity (% of wild type MCAM) [7]: 13.7 % of WT

binding result [1]: binds
B3: mouse anti-human MCAM monoclonal antibody clone 1174.1.3 (antibody, V domains shown)
VH: QIQLVQSGPELKKPGETVKISCKASGYTFTNYGMNWVKQAPGKGLKWMGWINTYTGEPTYADDFKGRFALSLETSASTAYLQINNLKNEDMATYFCARYRYNKYERAMDYWGQGTSVTVSS
VL: DIVLTQSPASLAVSLGQRATISCRASKSVSTSGYSYMYWYQQKPGQPPKLLIYLASNLESGVPARFSGSGSGTDFTLNIHPVEEEDAATYYCQHSRELPFTFGSGTKLEIK
notes: Mouse hybridoma monoclonal

binding result [1]: binds
B4: mouse anti-human MCAM monoclonal antibody clone 1415.1.1 (antibody, V domains shown)
VH: QVQLQQPGAELVQPGAPVKLSCKASGYIFTSYWMNWVKQRPGRGLEWIGRIDPSDSKIHYNQKFKDKATLTVDRSSSTAYIQLGSLTSEDSAVYYCAKEGGLRRGDYAMDYWGQGTSVTVSS
VL: DIVMTQSPATLSVTPGDRVSLSCRASQSISDYLHWYQQKSHESPRLLIKYASQSISGIPSRFSGSGSGSDFTLSINSVEPEDVGVYYCQNGHNFPRTFGGGTKLEIK
notes: Mouse hybridoma monoclonal
